Laboratory results from paper PMC7427792, “CryoEM structure of the low-complexity domain of hnRNPA2 and its conversion to pathogenic amyloid” (Nature Communications, 2020).

B1: mCherry-hnRNPA2-LCD fusion protein (domain or fragment, human, UniProt P22626-2 181-341, looked up)
chain: MQEVQSSRSGRGGNFGFGDSRGGGGNFGPGPGSNFRGGSDGYGSGRGFGDGYNGYGGGPGGGNFGGSPGYGGGRGGYGGGGPGYGNQGGGYGGGYDNYGGGNYGSGNYNDFGNYNQQPSNYGPMKSGNFGGSRNMGGPYGGGNYGPGGSGGSGGYGGRSRY
notes: hnRNPA2 C-terminal low-complexity domain (LCD), human, residues 181-341 of the 341-residue protein (161 residues); printed length 341 = isoform A2 of HNRNPA2B1; Only Gly263-Tyr319 is ordered in the fibril core; also called mC-hnRNPA2-LCD; mCh-hnRNPA2-LCD; source: E. coli BL21(DE3), purified (HisTrap HP column, in 2 M guanidine HCl), dialysed and concentrated; not shown: mCherry, N-terminal, kept
B2: hnRNPA2 mutant core segment GNYNVF (286-291, D290V) (peptide)
peptide: GNYNVF
notes: hexamer segment 286-291 of human hnRNPA2 LCD with the disease variant D290V (multisystem proteinopathy); numbers count on the 341-residue hnRNPA2 (isoform A2); also called mutant segment; disease-causing mutant core segment

Key:
[1] = target: the molecule itself; assay: X-ray fibre diffraction; mC-hnRNPA2-LCD hydrogel (~60 mg ml^-1, 4 °C) air-dried between two capillary glass rods; 100 K
[2] = target: the molecule itself; assay: crystal structure; hanging-drop vapour diffusion; segment 9.69 mg ml^-1 in water with 31 mM lithium hydroxide; reservoir 0.15 M ammonium acetate, 35% MPD, 0.1 M Bis-Tris pH 5.5

Protein | binding result [1] | binding result [2]
B1 | binds | –
B2 | – | binds
